Values belong to the binder of their own block, whether it stands above or below them.
What was measured:
4H906-bA = biological target: T1, 4H906-bA; assay: two-hybrid library CCNG1;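 also: natural log of median RNA to DNA barcode read ratio; higher means stronger binding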
T1 chain: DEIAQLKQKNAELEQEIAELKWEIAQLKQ

4H584-bA = biological target: T2, 4H584-bA; assay: two-hybrid library CCNG1;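 also: natural log of median RNA to DNA barcode read ratio; higher means stronger binding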
T2 chain: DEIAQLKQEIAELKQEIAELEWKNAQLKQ

4H850-bA = biological target: T3, 4H850-bA; assay: two-hybrid library CCNG1;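 also: natural log of median RNA to DNA barcode read ratio; higher means stronger binding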
T3 chain: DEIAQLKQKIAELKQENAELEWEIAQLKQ

4H3638-bA = biological target: T4, 4H3638-bA; assay: two-hybrid library CCNG1;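 also: natural log of median RNA to DNA barcode read ratio; higher means stronger binding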
T4 chain: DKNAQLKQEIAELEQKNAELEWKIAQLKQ

4H570-bA = biological target: T5, 4H570-bA; assay: two-hybrid library CCNG1;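 also: natural log of median RNA to DNA barcode read ratio; higher means stronger binding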
T5 chain: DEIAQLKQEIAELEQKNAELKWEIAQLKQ

4H3974-bA = biological target: T6, 4H3974-bA; assay: two-hybrid library CCNG1;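 also: natural log of median RNA to DNA barcode read ratio; higher means stronger binding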
T6 chain: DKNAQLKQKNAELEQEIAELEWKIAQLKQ

4H619-bA = biological target: T7, 4H619-bA; assay: two-hybrid library CCNG1
T7 chain: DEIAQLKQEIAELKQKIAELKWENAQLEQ

4H3631-bA = biological target: T8, 4H3631-bA; assay: two-hybrid library CCNG1
T8 chain: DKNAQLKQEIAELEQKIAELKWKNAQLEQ

4H3817-bA = biological target: T9, 4H3817-bA; assay: two-hybrid library CCNG1
T9 chain: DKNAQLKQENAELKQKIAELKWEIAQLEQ

4H850-bN = biological target: T10, 4H850-bN; assay: two-hybrid library CCNG1
T10 chain: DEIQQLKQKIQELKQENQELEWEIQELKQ

4H3974-bN = biological target: T11, 4H3974-bN; assay: two-hybrid library CCNG1
T11 chain: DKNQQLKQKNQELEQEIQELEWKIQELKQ

4H3638-bN = biological target: T12, 4H3638-bN; assay: two-hybrid library CCNG1
T12 chain: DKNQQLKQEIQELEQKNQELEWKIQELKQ

4H570-bN = biological target: T13, 4H570-bN; assay: two-hybrid library CCNG1
T13 chain: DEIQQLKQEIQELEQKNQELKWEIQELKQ

4H3817-bN = biological target: T14, 4H3817-bN; assay: two-hybrid library CCNG1
T14 chain: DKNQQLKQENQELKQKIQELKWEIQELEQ

4H584-bN = biological target: T15, 4H584-bN; assay: two-hybrid library CCNG1
T15 chain: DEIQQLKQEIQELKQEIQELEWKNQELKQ

4H906-bN = biological target: T16, 4H906-bN; assay: two-hybrid library CCNG1
T16 chain: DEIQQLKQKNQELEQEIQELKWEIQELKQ

4H619-bN = biological target: T17, 4H619-bN; assay: two-hybrid library CCNG1
T17 chain: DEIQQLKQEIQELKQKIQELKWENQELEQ

4H953-bH = biological target: T18, 4H953-bH; assay: two-hybrid library CCNG1
T18 chain: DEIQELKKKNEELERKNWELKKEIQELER

4H3858-bA = biological target: T19, 4H3858-bA; assay: two-hybrid library CCNG1
T19 chain: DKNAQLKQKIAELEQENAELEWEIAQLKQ

P10-AA = biological target: T20, P10-AA; assay: two-hybrid library CCmax; conditions: mean of both orientations
T20 chain: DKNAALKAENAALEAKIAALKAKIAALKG

O8-AA = biological target: T21, O8-AA; assay: two-hybrid library CCmax; conditions: mean of both orientations
T21 chain: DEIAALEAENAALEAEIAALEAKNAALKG

P9-AA = biological target: T22, P9-AA; assay: two-hybrid library CCmax; conditions: mean of both orientations
T22 chain: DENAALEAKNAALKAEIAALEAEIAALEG

O7-AA = biological target: T23, O7-AA; assay: two-hybrid library CCmax
T23 chain: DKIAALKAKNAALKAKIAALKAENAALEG

4H2985-AA = biological target: T24, 4H2985-AA; assay: two-hybrid library CCmax; conditions: mean of both orientations
T24 chain: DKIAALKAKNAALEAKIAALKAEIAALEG

4H510-AA = biological target: T25, 4H510-AA; assay: two-hybrid library CCmax; conditions: mean of both orientations
T25 chain: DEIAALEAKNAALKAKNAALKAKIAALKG

4H278-AA = biological target: T26, 4H278-AA; assay: two-hybrid library CCmax
T26 chain: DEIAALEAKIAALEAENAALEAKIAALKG

4H3134-AA = biological target: T27, 4H3134-AA; assay: two-hybrid library CCmax; conditions: mean of both orientations
T27 chain: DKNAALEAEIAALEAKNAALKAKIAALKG

4H775-AA = biological target: T28, 4H775-AA; assay: two-hybrid library CCmax
T28 chain: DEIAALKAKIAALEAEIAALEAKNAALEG

4H816-AA = biological target: T29, 4H816-AA; assay: two-hybrid library CCmax; conditions: mean of both orientations
T29 chain: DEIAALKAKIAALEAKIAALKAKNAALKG

4H3625-AA = biological target: T30, 4H3625-AA; assay: two-hybrid library CCmax; conditions: mean of both orientations
T30 chain: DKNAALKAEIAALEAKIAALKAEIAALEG

4H87-AA = biological target: T31, 4H87-AA; assay: two-hybrid library CCmax; conditions: mean of both orientations
T31 chain: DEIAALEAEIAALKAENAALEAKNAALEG

4H3409-AA = biological target: T32, 4H3409-AA; assay: two-hybrid library CCmax; conditions: mean of both orientations
T32 chain: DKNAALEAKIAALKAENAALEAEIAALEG

4H390-AA = biological target: T33, 4H390-AA; assay: two-hybrid library CCmax; conditions: mean of both orientations
T33 chain: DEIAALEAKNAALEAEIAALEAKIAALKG

4H3940-AA = biological target: T34, 4H3940-AA; assay: two-hybrid library CCmax; conditions: mean of both orientations
T34 chain: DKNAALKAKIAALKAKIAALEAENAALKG

4H2873-AA = biological target: T35, 4H2873-AA; assay: two-hybrid library CCmax; conditions: mean of both orientations
T35 chain: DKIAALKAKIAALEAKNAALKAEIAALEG

4H591-bN = biological target: T36, 4H591-bN; assay: two-hybrid library CCNG1
T36 chain: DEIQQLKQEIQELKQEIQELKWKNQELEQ

4H3497-bN = biological target: T37, 4H3497-bN; assay: two-hybrid library CCNG1
T37 chain: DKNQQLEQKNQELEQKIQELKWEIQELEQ

4H3613-bN = biological target: T38, 4H3613-bN; assay: two-hybrid library CCNG1
T38 chain: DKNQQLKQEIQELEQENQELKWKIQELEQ

4H3926-bN = biological target: T39, 4H3926-bN; assay: two-hybrid library CCNG1
T39 chain: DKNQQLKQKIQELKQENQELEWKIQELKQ

4H3628-bN = biological target: T40, 4H3628-bN; assay: two-hybrid library CCNG1
T40 chain: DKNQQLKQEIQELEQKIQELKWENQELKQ

4H626-bN = biological target: T41, 4H626-bN; assay: two-hybrid library CCNG1
T41 chain: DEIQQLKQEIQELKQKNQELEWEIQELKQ

4H3628-bA = biological target: T42, 4H3628-bA; assay: two-hybrid library CCNG1
T42 chain: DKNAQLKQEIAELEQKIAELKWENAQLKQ

4H3613-bA = biological target: T43, 4H3613-bA; assay: two-hybrid library CCNG1
T43 chain: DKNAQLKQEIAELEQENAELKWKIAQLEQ

4H3926-bA = biological target: T44, 4H3926-bA; assay: two-hybrid library CCNG1
T44 chain: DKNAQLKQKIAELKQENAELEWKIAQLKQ

4H591-bA = biological target: T45, 4H591-bA; assay: two-hybrid library CCNG1
T45 chain: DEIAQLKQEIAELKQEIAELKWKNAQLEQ

4H626-bA = biological target: T46, 4H626-bA; assay: two-hybrid library CCNG1
T46 chain: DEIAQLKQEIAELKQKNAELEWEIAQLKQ

P7mS = biological target: T47, P7mS; assay: two-hybrid library CC1; conditions: mean of both orientations
T47 chain: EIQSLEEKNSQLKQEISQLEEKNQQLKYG

P8 = biological target: T48, P8; assay: two-hybrid library CC1; conditions: mean of both orientations
T48 chain: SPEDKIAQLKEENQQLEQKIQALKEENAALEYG

P9 = biological target: T49, P9; assay: two-hybrid library CC1; conditions: mean of both orientations
T49 chain: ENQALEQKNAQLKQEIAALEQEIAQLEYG

P7 = biological target: T50, P7; assay: two-hybrid library CC1; conditions: mean of both orientations
T50 chain: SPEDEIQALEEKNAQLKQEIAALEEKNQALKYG

P6mS = biological target: T51, P6mS; assay: two-hybrid library CC1; conditions: mean of both orientations
T51 chain: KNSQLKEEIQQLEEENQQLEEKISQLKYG

P6SC1 = biological target: T52, P6SC1; assay: two-hybrid library CC1
T52 chain: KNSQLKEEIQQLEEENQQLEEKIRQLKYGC

P6SC2 = biological target: T53, P6SC2; assay: two-hybrid library CC1; conditions: mean of both orientations
T53 chain: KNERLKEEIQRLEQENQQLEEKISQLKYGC

P8mS = biological target: T54, P8mS; assay: two-hybrid library CC1; conditions: mean of both orientations
T54 chain: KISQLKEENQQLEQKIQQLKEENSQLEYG

B1: 4H3631-bA (peptide)
chain: DKNAQLKQEIAELEQKIAELKWKNAQLEQ
interaction score (4H906-bA): -0.872 | interaction score (4H584-bA): 0.0123 | interaction score (4H850-bA): -0.369 | interaction score (4H3638-bA): -0.00348 | interaction score (4H570-bA): -0.919 | interaction score (4H3974-bA): 0.937 | interaction score (4H619-bA): -0.0328 | interaction score (4H3631-bA): 0.816 | interaction score (4H3817-bA): 0.452

B5: 4H278-AA (peptide)
chain: DEIAALEAKIAALEAENAALEAKIAALKG
interaction score (4H2985-AA): 1.94 | interaction score (4H510-AA): 1.09 | interaction score (4H278-AA): 1.38 | interaction score (4H3134-AA): 1.9 | interaction score (4H775-AA): -1.16 | interaction score (4H816-AA): 0.427 | interaction score (4H3625-AA): 1.32 | interaction score (4H87-AA): -1.44 | interaction score (4H3409-AA): 0.702 | interaction score (4H390-AA): 1.6 | interaction score (4H3940-AA): 0.936 | interaction score (4H2873-AA): 1.66

B6: 4H3497-bN (peptide)
chain: DKNQQLEQKNQELEQKIQELKWEIQELEQ
interaction score (4H591-bN): -0.818 | interaction score (4H3497-bN): -1.39 | interaction score (4H3613-bN): -1.36 | interaction score (4H3926-bN): -1.9 | interaction score (4H3628-bN): -0.414 | interaction score (4H906-bN): -0.915 | interaction score (4H626-bN): -2.23

B7: 4H3613-bA (peptide)
chain: DKNAQLKQEIAELEQENAELKWKIAQLEQ
interaction score (4H906-bA): -0.971 | interaction score (4H3628-bA): -0.292 | interaction score (4H3858-bA): -0.117 | interaction score (4H3613-bA): -0.128 | interaction score (4H850-bA): 0.586 | interaction score (4H570-bA): -0.148 | interaction score (4H3974-bA): -0.83 | interaction score (4H3926-bA): 2.15 | interaction score (4H591-bA): -0.523 | interaction score (4H626-bA): -0.846 | interaction score (4H3817-bA): -0.898

B8: P6SC1 (peptide)
chain: T52 chain
interaction score (P7mS): -2.22 | interaction score (P8): -2.12 | interaction score (P9): -1.54 | interaction score (P7): -0.456 | interaction score (P6mS): -2.87 | interaction score (P6SC1): -2.56 | interaction score (P6SC2): -2.43 | interaction score (P8mS): -2.55

The remaining lines, values ahead:

interaction score (4H850-bN): 0.801 | interaction score (4H3974-bN): -0.469 | interaction score (4H3638-bN): 0.732 | interaction score (4H570-bN): 0.408 | interaction score (4H3817-bN): -0.442 | interaction score (4H584-bN): 0.234 | interaction score (4H906-bN): -0.17 | interaction score (4H619-bN): -1.26 | interaction score (4H953-bH): -2.56
B2: 4H3638-bN (peptide)
chain: DKNQQLKQEIQELEQKNQELEWKIQELKQ

interaction score (4H906-bA): -0.916 | interaction score (4H3858-bA): -1.18 | interaction score (4H584-bA): -1.24 | interaction score (4H850-bA): -0.849 | interaction score (4H570-bA): -1.2 | interaction score (4H3974-bA): 1.27 | interaction score (4H619-bA): -1.25 | interaction score (4H3817-bA): -0.506
B3: 4H3817-bA (peptide)
chain: DKNAQLKQENAELKQKIAELKWEIAQLEQ

interaction score (P10-AA): -1.18 | interaction score (O8-AA): 2.12 | interaction score (P9-AA): -1.37 | interaction score (O7-AA): -1.65
B4: O7-AA (peptide)
chain: DKIAALKAKNAALKAKIAALKAENAALEG

Reference: publication PMC10397247
